Measured values: patent US20160130327A1 (Merck Sharp & Dohme, published 2016)
Changes are numbered by the printed parent chain.

B1: 210.4 (antibody, V domains shown)
VH: QSVEESGGRLVTPGTPLTLTCTVSGFSLSTNAMSWVRQAPGKGLEWIGYIWSGGSTYYASWAKGRFAISKTSTTVDLKITSPTTEDTATYFCAKNGDNGQLDLWGQGTLVTVSS
VL: ELVLTQTPSPVSAAVGGTVTINCQTSQSLYNNNFLSWYQQKPGQPPKLLIYKASTLESGVPSRFKGSGSGTQFTLTISGVQCDDAATYYCQGEFSCSSADCNAFGGGTEVVVK
notes: rabbit hybridoma mAb; also called clone 210.4
B2: 124.4 (antibody, V domains shown)
VH: QSLEESGGRLVTPGTPLTLTCTVSGFSLSSCNMGWVRQAPGEGLEWIGYIAASGDAFYASWAKGRFTISKTSSTTVDLRITSPTTEDTAAYFCARGSYAAYNAWDLWGPGTLVTVSS
VL: ELDMTQTASPVSAAVGGTVTINCQSSQSVYNKNYLSWYQQKPGQPPKLLIYGASTLPSGVPSRFKGSGSGTQFTLTISEVQCDDAATYYCQGYYSGYIYAFGGGTEVVVK
notes: rabbit hybridoma mAb; also called clone 124.4
B3: 324.4 (antibody, V domains shown)
VH: QSVKESEGRLVTPGTPLTLTCTVSGFSPSSYNMGWVRQAPGEGLEWIGYISTSGNTFYASWAKGRFTISKTSTTVDLRITSPTTEDTATYFCARGSYVAYNAWDLWGPGTLVTISS
VL: B2 VL with M4L, K32N, P57A
notes: rabbit hybridoma mAb; also called clone 324.4
B4: 58.5 (antibody, V domains shown)
VH: QSLEESGGRLVTPGGSLTLTCTVSGFSLSAYSVSWVRQAPGKGLEWIGIIGHSGNTYYASWAKGRFTISKTSTTVDLKITSLTTEDTATYFCAREDYRYGDYGYYWDFNFWGPGTLVTISS
VL: ELDLTQTASPVSAPVGGTVTINCQASQNIYSNLAWYQQKPGQPPKLLIYGASTLASGVSSRFKGSRSGTEFTLTISDLECADAATYYCQSYVYSSSTADTFGGGTEVVVK
notes: rabbit hybridoma mAb (not the humanized version); also called clone 58.5
B5: 223.4 (antibody, V domains shown)
VH: B4 VH with G15T, S16P, S60N, T84I
VL: ELVMTQTPSPVSAPVGGTVTISCQASRSVYNENYVAWFQHRPGQPPKLLIYTTSILASGVPSRFKGRGSGTQFTLTISDVQCDDAATYYCAGDYDDNEENAFGGGTELEIL
notes: rabbit hybridoma mAb; also called clone 223.4
B6: 350.1 (antibody, V domains shown)
VH: QSLEESGGDLVKPGASLTLTCTASGFSFSNSYYMCWVRQAPGKGLEWIVCIYAGSSGFTYYANWAKGRFTVSKTSSTTVTLQMTSLTAADTATYFCARDRGYYTYGYAGYGYGMDLWGPGTLVTISS
VL: ELDMTQTPSPVSTAVGGTVSISCQSGQNVWTNDYLSWYQQKPGQPPKLLIYRASTLASGVPSRFKGSGSGTQFTLTISDVQCDDAATYYCGGTFLSNGDNGFGGGTEVVVK
notes: rabbit hybridoma mAb; also called clone 350.1; mAb 350.1
B7: 276.10 (antibody, V domains shown)
VH: QSLEESGGDLVQPEGSLTLTCTASGFSFSGSYYMCWVRQAPGTGLEWIACIDGDLSGSAYYANWAKGRFTISGTSSTTVTLQVTSLTAADTATYFCAREGPVGVGSIYLGFDLWGPGTLVTISS
VL: ELDLTQTPASVEVPVGGTVTIKCQASHNINTYLSWYQQKPGQPPKLLIYRASDLASGVSSRFSGSGSGTQFTLTISGVECADAATYYCQQGFNSLNVENVFGGGTEVVVK
notes: rabbit hybridoma mAb (not the humanized version); also called clone 276.10
B8: 70.7 (antibody, V domains shown)
VH: QSVEESRGRLVTPGTPLTLTCTASGFSLSSYHMIWVRQAPGKGLEWIGYINYNNNPYYATWAKGRFTISRTSTTVALKITSPTTEDSATYFCARAAGNYYVGALNLWGPGTLVTISS
VL: ERDMTQTPASVEVAVGGTVTIKCQASQSIGNLLAWYQQKPGQRPKLLIYDASTLASGVPSRFKGSGSGTEFTLTISGVQCADAATYYCQQGYMITNVENAFGGGTEVVVK
notes: rabbit hybridoma mAb; also called clone 70.7
B9: 316.2 (antibody, V domains shown)
VH: B8 VH with E4K, R7E, Y52N, N54D, E85K, S87T
VL: B8 VL with R2L, D3V, M4L, S28T, A34G, Q42R, R43P, G68A, S76R, A81D
notes: rabbit hybridoma mAb; also called clone 316.2
B10: 270.7 (antibody, V domains shown)
VH: B8 VH with R7G, T18A, G25R, Y31N, S87T
VL: B8 VL with R2L, D3V, K39E, E106N, V108E, V109I
notes: rabbit hybridoma mAb; also called clone 270.7
B11: 240.8 (antibody, V domains shown)
VH: QSVEESGGGLVTPGGTLTLTCGVSGIDLSANEMGWVRQAPGEGLEWIGTLSYHNIPHYATWAKGRFTISKTSTTVDLKITSPTSADTATYFCGRVFTSTSFDPWGPGTLVTISS
VL: ELVMTHPPASVSAPVGGTVTIKCQASHNIGSRLPWYQQEPGQPPKLLIYRTSTLASGVPSRFTGSGYGTEFTLTISDLECADAATYYCQDHDDISHAFGGGTNVEIK
notes: rabbit hybridoma mAb; also called clone 240.8
B12: 212.6 (antibody, V domains shown)
VH: QSLEESGGRLVTPGTPLTLTCTVSGFSLSSYAMSWVRQAPGKGLEWIGIIGSSGNTYYASWAKGRFTISKTSTTVDLKITSPTTEDTATYFCARGGYSYDDYTPFDLWGPGTLVTVSS
VL: ELVLTQSPSLSASLGTTARLTCTLSTGYSVGKYPLVWLQQVPGRPPRYLLTYHTEEFKHQGSGVHSRFSGSKDTSENAGVLSISGLQPEDEADYYCATAHATESSLHYVFGGGTQLTVT
notes: rabbit hybridoma mAb; also called clone 212.6
B13: 347.3 (antibody, V domains shown)
VH: QSLEESEGRLVTPGTPLTLTCTVSGIDLSTYAMNWVRQAPGKGLEWIGIIGSSGGAYYASWAKGRCTISKTSTTVDLKITSPTTEDTATYFCAVSLYTYDDYADYFLWGPGTLVTISS
VL: B12 VL with A78S, G79F, S82R, S84F, A97V, A101P
notes: rabbit hybridoma mAb; also called clone 347.3
B14: 57.4 (antibody, V domains shown)
VH: QSLEESGGGLVKPGGTLTLTCTASGFSFSSVYDMSWVRQAPGKGLEWIASIVTGSRTTWYASWAKGRFTVSKTSSTTVTLQMTSLTAADTATYFCARGEYGHDGYVDGTMGLGLWGPGTLVTISS
VL: ELDLTQTPASVEAAVGGTVAIKCQASQSIRRHLSWYQQKPGQRPKLLIYGASNLASGVSSRFKGSGSGTEFTLTISDLECADAATYYCQCTYGVGFSSTYGDAFGGGTELEIL
notes: rabbit hybridoma mAb (not the humanized version); also called clone 57.4; mAb 57.4

Columns and labels:
[1] = target: T1, revertant virus (AD169 CMV with the pentameric gH complex restored); assay: antibody-titration EIA, coated revertant virions
T1 construct: also called revertant virion; revertant virions

[2] = target: T1, revertant virus (AD169 CMV with the …); assay: cell-based or functional assay
recombinant gB = target: T2, recombinant gB (human cytomegalovirus (CMV), UniProt P06473 32-700); assay: EIA on recombinant gB
T2 construct: also called gB protein; recombinant gB antigen
T2 sequence (P06473 32-700 limits assumed): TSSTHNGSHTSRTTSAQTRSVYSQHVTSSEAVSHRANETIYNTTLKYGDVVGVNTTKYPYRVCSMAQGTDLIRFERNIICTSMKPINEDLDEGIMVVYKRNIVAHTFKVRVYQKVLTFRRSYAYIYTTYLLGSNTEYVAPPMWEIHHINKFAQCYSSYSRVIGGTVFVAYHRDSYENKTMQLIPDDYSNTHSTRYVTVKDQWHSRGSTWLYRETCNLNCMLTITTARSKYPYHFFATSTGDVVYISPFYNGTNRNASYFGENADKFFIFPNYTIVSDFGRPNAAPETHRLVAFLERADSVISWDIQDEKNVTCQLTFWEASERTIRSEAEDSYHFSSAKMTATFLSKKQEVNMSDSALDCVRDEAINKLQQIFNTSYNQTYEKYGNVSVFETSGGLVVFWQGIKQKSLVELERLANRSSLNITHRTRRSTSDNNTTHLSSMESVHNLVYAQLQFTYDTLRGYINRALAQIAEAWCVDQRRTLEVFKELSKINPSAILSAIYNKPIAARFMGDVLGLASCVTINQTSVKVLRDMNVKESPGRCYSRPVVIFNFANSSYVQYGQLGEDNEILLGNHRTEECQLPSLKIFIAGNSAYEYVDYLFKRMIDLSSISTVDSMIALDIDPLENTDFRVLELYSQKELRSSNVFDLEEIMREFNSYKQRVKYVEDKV

Row | Binder | EC50 [1] [µg/mL] | Neutralization in ARPE-19 cells EC50 [2] [µg/mL] | Neutralization in MRC-5 cells EC50 [2] [µg/mL] | binding result (recombinant gB)
1 | B1 | 0.03 | 100 | 100 | 
2 | B2 | 1.72 | 0.05 | 0.08 | no binding (tested: 1 µg/ml)
3 | B3 | 4.09 | 0.1 | 0.21 | no binding (tested: 1 µg/ml)
4 | B4 | 0.59 | 0.02 | 100 | no binding (tested: 1 µg/ml)
5 | B5 | 1.54 | 0.06 | 100 | no binding (tested: 1 µg/ml)
6 | B6 | 0.02 | 100 | 100 | 
7 | B7 | 0.25 | 0.01 | 100 | no binding (tested: 1 µg/ml)
8 | B8 | 1.46 | 0.03 | 0.09 | no binding (tested: 1 µg/ml)
9 | B9 | 1.06 | 0.02 | 0.08 | no binding (tested: 1 µg/ml)
10 | B10 | 0.68 | 0.02 | 0.06 | no binding (tested: 1 µg/ml)
11 | B11 | 2.6 | 0.79 | 100 | 
12 | B12 | 52.9 | 3.71 | 100 | 
13 | B13 | 0.34 | 0.03 | 100 | no binding (tested: 1 µg/ml)
14 | B14 | 0.09 | 0.01 | 100 | no binding (tested: 1 µg/ml)
